Residues, ends and D or L forms follow the SMILES beside them. *: point of attachment. Cbz = O=C(OCc1ccccc1)*

The text below walks through data of US20070286806A1, “Methods and Compositions for Modulating a Steroid Receptor” (Mount Sinai Hospital, priority 2004, published 2007).

In one assay the test system is PRA and PRB protein. Briefly: PR protein level by western blot of whole cell lysate after co-transfection in SHM cells. The class given is cell-based. The protocol:
FIG. 5. […] (A) SHM cells were transient transfected (eighteen hours) with PRA or PRB expression vector with or without increasing doses (0.2, 0.5, 1.0 and 2.0 μg) of His-PSF vector as indicated. Whole cell lysate was analyzed by western blot with PR or His tag antibody. NS=non-specific binding. (B) SHM cells were transient transfected (eighteen hours) with PRA or PRB expression vector together with 2.0 μg His tagged PSF1-707 or truncated PSF1-662. Culture media was added with or without 60 nM MG132 (Z-Leu-Leu-Leu-a1) as indicated for another 6 hours. Whole cell lysate was analyzed by western blot with PR or His tag antibody. Gβ protein was also detected as the cell lysate loading control.
For immunoprecipitation of the endogenous PR and PSF, T47D cells cultured in 150 mm dishes were lysed in 800 μl NETN buffer containing 150 mM NaCl plus protease inhibitor cocktail. Cell lysate were then incubated with 5 μg of PR or PSF, or control mouse IgG at 4° C. overnight, followed by the addition of 30 μl of protein A/G PLUS-agarose beads (Santa Cruz) for another two hours at 4° C. Resins were washed with NETN containing 250 mM NaCl and eluted with 1×Laemmli buffer. The eluted proteins along with the whole cell extract were western blotted by PR or PSF antibody. • GST pulldown assay: GST pulldown assay was performed as previously described (20). GST and its fusion proteins were first immobilized to glutathione-Sepharose 4B affinity matrix. The matrix was then incubated at 4° C. overnight with rabbit reticulocyte lysate (Promega) containing PR or His-PSF transcribed and translated in presence of ^35S methionine. The matrix was washed three times with cold NETN buffer before adding 1 ×Laemmli buffer to elute associated proteins. The eluted proteins were separated on 10% SDS-PAGE gel. Gels were treated with Enhancer (NEN, Boston, US) dried and analyzed by autoradiography. • Cell culture and transient transfection: SHM cells and 293T cells were maintained in DMEM plus 5% FCS (Sigma) as described before (22). For experiments involving steroid exposure, the medium was substituted with phenol red free DMEM containing 5% charcoal-treated fetal bovine serum (Hyclone, Utah, USA). Transfection was performed according to manufacturers protocol (Fementas). Cells were seeded at a density to achieve 60-80% confluency the following day. The DNA and transfection reagent were mixed and added to the medium. Cell lysates were collected at least 30 hours after transfection. For luciferase assay, cells were collected in 200 μl of lysis buffer (Promega) of which 10μl was used for the luciferase and β-Gal activity assays respectively. Luciferase activity was determined by using the luciferin reagent (Promega) according to manufacture's protocol. […]

The next assay relates to PR protein. Description: PR protein levels on over-expression of PSF in 293T cells. The class given is cell-based. The settings on record: 293T cells.
The target in assay [1] is T1, His-PSF (6xHis-tagged full length human PSF, amino acid 1-707) (human, UniProt P23246 1-707).
T1 construct: Expressed in 293T or SHM cells (co-immunoprecipitation, reporter assays) or translated in rabbit reticulocyte lysate with ^35S methionine (GST pulldown); 1 only as 'e.g.' of wild type PSF; also called His tagged PSF; His tagged PSF1-707; not shown: N-terminal 6xHis tag of vector pcDNA3.1 6xHis
T1 sequence: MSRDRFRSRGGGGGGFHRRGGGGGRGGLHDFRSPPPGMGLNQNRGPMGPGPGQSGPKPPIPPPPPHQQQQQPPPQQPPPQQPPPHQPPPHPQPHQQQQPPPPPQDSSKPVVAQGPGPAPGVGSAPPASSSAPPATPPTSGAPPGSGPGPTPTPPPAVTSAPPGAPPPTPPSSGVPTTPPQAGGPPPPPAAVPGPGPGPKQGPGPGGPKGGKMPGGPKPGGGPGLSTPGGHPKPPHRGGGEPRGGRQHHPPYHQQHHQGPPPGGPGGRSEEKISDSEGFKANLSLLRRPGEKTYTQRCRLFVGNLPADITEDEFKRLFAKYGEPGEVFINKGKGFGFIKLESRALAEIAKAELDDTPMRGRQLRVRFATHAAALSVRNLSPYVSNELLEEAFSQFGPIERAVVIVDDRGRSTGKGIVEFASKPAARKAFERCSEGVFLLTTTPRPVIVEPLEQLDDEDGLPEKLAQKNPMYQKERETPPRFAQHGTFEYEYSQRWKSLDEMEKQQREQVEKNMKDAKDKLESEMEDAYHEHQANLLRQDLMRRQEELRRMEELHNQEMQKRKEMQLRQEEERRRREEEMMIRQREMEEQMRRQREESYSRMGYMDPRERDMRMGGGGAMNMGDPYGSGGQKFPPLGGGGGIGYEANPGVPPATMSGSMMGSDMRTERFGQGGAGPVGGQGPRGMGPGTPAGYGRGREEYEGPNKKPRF
Description: GST pulldown of ^35S-labeled PSF, autoradiography.

Take `CC(C)C[C@@H](C=O)NC(=O)[C@H](CC(C)C)NC(=O)[C@H](CC(C)C)NC(=O)OCc1ccccc1` [MG132, Z-Leu-Leu-Leu-a1, reference compound] (Cbz-Leu-Leu-Leu-aldehyde): the “effect on PSF-induced loss of PR protein” value with PRA and PRB protein (final concentration of 60 μM for an additional 6 hours) is recorded as “block the loss of PR protein”. Moreover, the “effect on PSF-induced reduction of PR protein levels” value in the assay with PR protein is recorded as “rescued”.

B1: GST-PR fusion protein, amino acids 650-933 of PRB (other)
chain: ALDAVALPQPLGVPNESQALSQRFTFSPGQDIQLIPPLINLLMSIEPDVIYAGHDNTKPDTSSSLLTSLNQLGERQLLSVVKWSKSLPGFRNLHIDDQITLIQYSWMSLMVFGLGWRSYKHVSGQMLYFAPDLILNEQRMKESSFYSLCLTMWQIPQEFVKLQVSQEEFLCMKVLLLLNTIPLEGLRSQTQFEEMRSSYIRELIKAIGLRQKGVVSSSQRFYQLTKLLDNLHDLVKQLHLYCLNTFIQSRALSVEFPEMMSEVIAAQLPKILAGMVKPLLFHKK
notes: also called other segments of PR; not shown: glutathione-S-transferase (GST) of vector pGEX 5X-2
For B1, in assay [1], the binding result is given as “no binding”.

B2: PSF-1-662: truncated form of PSF, amino acids 1-662 (protein, UniProt P23246 1-662, looked up, fragment)
chain: MSRDRFRSRGGGGGGFHRRGGGGGRGGLHDFRSPPPGMGLNQNRGPMGPGPGQSGPKPPIPPPPPHQQQQQPPPQQPPPQQPPPHQPPPHPQPHQQQQPPPPPQDSSKPVVAQGPGPAPGVGSAPPASSSAPPATPPTSGAPPGSGPGPTPTPPPAVTSAPPGAPPPTPPSSGVPTTPPQAGGPPPPPAAVPGPGPGPKQGPGPGGPKGGKMPGGPKPGGGPGLSTPGGHPKPPHRGGGEPRGGRQHHPPYHQQHHQGPPPGGPGGRSEEKISDSEGFKANLSLLRRPGEKTYTQRCRLFVGNLPADITEDEFKRLFAKYGEPGEVFINKGKGFGFIKLESRALAEIAKAELDDTPMRGRQLRVRFATHAAALSVRNLSPYVSNELLEEAFSQFGPIERAVVIVDDRGRSTGKGIVEFASKPAARKAFERCSEGVFLLTTTPRPVIVEPLEQLDDEDGLPEKLAQKNPMYQKERETPPRFAQHGTFEYEYSQRWKSLDEMEKQQREQVEKNMKDAKDKLESEMEDAYHEHQANLLRQDLMRRQEELRRMEELHNQEMQKRKEMQLRQEEERRRREEEMMIRQREMEEQMRRQREESYSRMGYMDPRERDMRMGGGGAMNMGDPYGSGGQKFPPLGGGGGIGYEANPGVPPATMSGSMMGSDM
Take B2: the “PR proteins after co-transfection with PRB/PRA” value in the assay with PRA and PRB protein (after 24 hours) was “total loss of PR proteins”.

B3: GST-PR fusion protein, amino acids 456-556 of PRB (other)
chain: STLECILYKAEGAPPQQGPFAPPPCKAPGASGCLLPRDGLPSTSASAAAAGAAPALYPALGLNGLPQLGYQAAVLKEGLPQVYPPYLNYLRPDSEASQSPQ
notes: as for B1
For B3, in assay [1], the binding result is on record as “no binding”.

B4: GST-PR fusion protein, amino acids 164-456 of PRB (other)
chain: LMSRSGCKVGDSSGTAAAHKVLPRGLSPARQLLLPASESPHWSGAPVKPSPQAAAVEVEEEDSSESEESAGPLLKGKPRALGGAAAGGGAAACPPGAAAGGVALVPKEDSRFSAPRVALVEQDAPMAPGRSPLATTVMDFIHVPILPLNHALLAARTRQLLEDESYDGGAGAASAFAPPRTSPCASSTPVAVGDFPDCAYPPDAEPKDDAYPLYSDFQPPALKIKEEEEGAEASARSPRSYLVAGANPAAFPDFPLGPPPPLPPRATPSRPGEAAVTAAPASASVSSASSSGS
notes: as for B1
With B4, the binding result in assay [1] is on record as “no binding”.
